Results published in patent publication US20110105733A1 (Ablynx, published 2011).

Molecular target: T1, rat Jagged-1 (rrJagged-1, R&D Systems Cat #599-JG) (rat, UniProt Q63722 34-1067)
T1 construct: extracellular domain; Bought reagent; also called non-biotinylated Jagged-1; cold-jagged1
Assay: ELISA: rat Jagged-1 (rrJagged-1) coated at 2 ug/mL, Nanobody series, detection by mouse anti-Myc tag and DAMPO, OD 490 nm
Protocol: Two rounds of phage display selection were performed similarly as described above. Binding assays were performed. In short: Maxisorp plate was coated with 100 ul 2 ug/ml of rrJagged-1 (R&D systems) in PBS O/N at 4 C. After washing the plate 4× with PBS the plate was blocked with 4% Marvel in PBS for 30 minutes on shaker. A concentration series of Nanobody (1-1000 nM) was added in 100 ul 2% Marvell/PBS and incubate for 1 hour on shaker. After washing the plate 4× with PBS the Nanobodies were detected with 100 ul 1:5000 Mouse-anti-MycTag in 2% Marvell/PBS for 1 hour and 100 ul 1:5000 DAMPO in 2% Marvell/PBS for 1 hour. After washing the DAMPO was detected with 100 ul OPD, stopped with 50 ul H2SO4 and quantification was performed at 490 nm in a plate reader.

B1: 178D9 (VHH)
VHH: EVQLVKSGGGLVQPGGSLRLSCAASGSIVSANLIGWYRQAPGKQREGVAFITSGGAINYADSVKGRFTISRDDAKNTVYLQMNSLKPEDTAIYYCNLRQLGNVYWAQGTQVTVSS
notes: Nanobody against rat Jagged-1; not shown: C-terminal c-myc tag and His6 tag coded by vector pAX50
  binding result: binds
